Source: the RNAGym collection of RNA variant scans (doi:10.1021/acssynbio.7b00057)

B1: Pistol ribozyme (parent)
chain: GGGUCGUUGUUCCAUAAUCGCGUGGAUAUGGCACGCAAGUUUCUACCGGGCACCGUAAAUGUCCGACUGGAGCCGUUCGGGCGGCUAUAAACAGACCUCAGGCCCGAAGCGUGGCGGCACCUGCCGCCGGUGGUAAAAAAGAUCGGAAGAGCACACGUCU

Variants of: B1
Test: aptazyme ON/OFF ratio, guanine; higher = stronger switching; co-transcriptional cleavage with and without guanine

Variant | aptazyme ON/OFF ratio
U7C U8A G9A U10C C13G | 1.05
U7C U8A G9A U10C C13U | 1.51
U7C U8A G9A U10C C13A | 1.03
U7C U8A C12A C13U | 1.39
U7C U8A C12A C13G | 1.09
U7C U8A C12A C13A | 1.34
U7C G9U U10G U11A C12A C13A | 1.2
U7C G9U U10G U11A C12A C13G | 1.13
U7C G9U U10G U11A C12A C13U | 1.44
U7C G9U U11G C12A C13G | 1.1
U7C G9U U11G C12A C13U | 1.14
U7C G9U U11G C12A C13A | 1.19
U7C U8A G9A C12G | 1.26
U7C U8A G9A C12U | 1.3
U7C U8A G9A C12A | 1.32
U7C G9U U11C C13G | 1.02
U7C G9U U11C C13A | 1.05
U7C G9U U11C C13U | 1.05
U7C G9U U11G C12G | 1.18
U7C G9U U11G C12U | 1.47
U7C G9U U11G C12A | 1.09

Variant | aptazyme ON/OFF ratio
U7C U8A G9A U10A C12G C13U | 1.27
U7C U8A G9A U10A C12G C13G | 1.24
U7C U8A G9A U10A C12G C13A | 1.23
U7C G9U U11A C12U C13U | 1.2
U7C G9U U11A C12U C13A | 1.32
U7C G9U U11A C12U C13G | 1.14
U7C G9U U10C U11G C12U C13G | 1.15
U7C G9U U10C U11G C12U C13A | 1.14
U7C G9U U10C U11G C12U C13U | 1.16
U7C U8A G9A U10A U11C C12G | 1.21
U7C U8A G9A U10A U11C C12A | 1.16
U7C U8A G9A U10A U11C C12U | 1.09
U7C G9U U11C C12A C13U | 1.14
U7C G9U U11C C12A C13G | 1.07
U7C G9U U11C C12A C13A | 1.15
U7C U8A G9A U10C | 3.41
U7C U8A G9A U10A | 1.69
U7C U8A G9A U10G | 1.38
U7C G9U U10C U11G C12A C13A | 1.11
U7C G9U U10C U11G C12A C13U | 1.11
U7C G9U U10C U11G C12A C13G | 1.1

Variant | aptazyme ON/OFF ratio
U7C G9U U10G U11C C12G C13A | 1.06
U7C G9U U10G U11C C12G C13G | 1.11
U7C G9U U10G U11C C12G C13U | 1.12
U7C G9U U11A C13U | 1.25
U7C G9U U11A C13G | 1.03
U7C G9U U11A C13A | 1.2
U7C G9U U10G | 1.38
U7C U8A G9A U10C U11C C13G | 1.05
U7C U8A G9A U10C U11C C13U | 0.994
U7C U8A G9A U10C U11C C13A | 1.03
U7C U8A G9A U10G U11A C12A C13A | 1.18
U7C U8A G9A U10G U11A C12A C13U | 1.17
U7C U8A G9A U10G U11A C12A C13G | 1.17
U7C U8A G9A U10A U11A C13G | 1.12
U7C U8A G9A U10A U11A C13U | 1.1
U7C U8A G9A U10A U11A C13A | 1.16
U7C U8A G9A U10A U11C C12U C13G | 1.06
U7C U8A G9A U10A U11C C12U C13A | 1.09
U7C U8A G9A U10A U11C C12U C13U | 1.1
U7C G9U U10C U11C C12G C13G | 1.03
U7C G9U U10C U11C C12G C13A | 1.03

Variant | aptazyme ON/OFF ratio
U7C G9U U10C U11C C12G C13U | 1.02
U7C U8A G9A U10C C12G C13G | 1.1
U7C U8A G9A U10C C12G C13U | 1.19
U7C U8A G9A U10C C12G C13A | 1.13
U7C U8A | 3.27
U7C U8A G9A U10A C13A | 1.15
U7C U8A G9A U10A C13U | 1.26
U7C U8A G9A U10A C13G | 1.09
U7C U8A C12U C13A | 1.17
U7C U8A C12U C13G | 1.28
U7C U8A C12U C13U | 1.32
U7C G9U U10C U11C C12A C13G | 1.08
U7C G9U U10C U11C C12A C13U | 1.01
U7C G9U U10C U11C C12A C13A | 1.04
U7C G9U U10G U11G C12A C13U | 1.17
U7C G9U U10G U11G C12A C13A | 1.1
U7C G9U U10G U11G C12A C13G | 1.1
U7C G9U U10G U11A C12G | 1.27
U7C G9U U10G U11A C12U | 1.08
U7C G9U U10G U11A C12A | 1.2
